Assay [1] addresses T1, fusion protein containing the extracellular domain of human FRalpha and a polyhistidine tag (human, UniProt P15328 25-233).
T1 construct: extracellular domain; Coated on ELISA plates; also called human FRalpha extracellular domain; not shown: polyhistidine tag
Description: ELISA, human FRalpha ECD-His coated. How it is done:
(§1) The affinity of each IgG1 for FRalpha was confirmed by ELISA. Briefly, a fusion protein containing the extracellular domain of human FRalpha and a polyhistidine tag was used to coat ELISA plates, which were washed three times with phosphate-buffered saline (PBS) containing 0.1 percent polysorbate 20 (PBST), then blocked with PBS containing 5 percent powdered milk (PBSM), and then washed three more times with PBST. Wells were then incubated with antibodies at varying concentrations for 60 minutes at room temperature in 1 percent PBSM. Wells were then washed three times with PBST, after which the secondary, horseradish-peroxidase-conjugated antibody anti-human-IgG-Fc-HRP (ab97225, Abcam, United Kingdom) was added at a 1:8000 dilution in 1 percent PBSM for 50 minutes at room temperature. The wells were then washed six times with PBST, after which 3,3', 5,5"-tetramethylbenzidine (TMB) was added. The reaction was stopped with 2 molar sulfuric acid, and the TMB diamine product was quantified at 450 nanometers in a plate reader. Results are depicted in FIG. 2.

Assay [2] addresses T2, fusion protein containing the extracellular domain of cynomolgus FRalpha and a polyhistidine tag (cynomolgus, UniProt A0A2K5U044 25-233).
T2 construct: extracellular domain; Coated on ELISA plates; also called cynomolgus FRalpha extracellular domain; not shown: polyhistidine tag
Description: ELISA, cynomolgus FRalpha ECD-His coated. How it is done: as §1
The ELISA of the preceding paragraph was repeated with a fusion protein containing the extracellular domain of cynomolgus FRalpha and a polyhistidine tag. Results are depicted in FIG. 3.

The target of assay [3] is T3, human FRalpha expressed on cells (transfected HEK293 cells; SKOV3 human ovarian cancer cells) (human, UniProt P15328 25-234).
T3 construct: whole, on cells; also called folate receptor alpha
T3 sequence (P15328 25-234): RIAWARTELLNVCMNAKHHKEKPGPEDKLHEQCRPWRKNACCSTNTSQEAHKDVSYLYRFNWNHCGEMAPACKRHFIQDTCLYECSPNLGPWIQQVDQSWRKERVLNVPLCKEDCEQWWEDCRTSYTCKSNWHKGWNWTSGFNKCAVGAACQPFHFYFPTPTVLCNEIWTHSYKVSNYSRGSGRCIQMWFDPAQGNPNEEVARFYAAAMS
Description: flow cytometry on HEK293 cells transfected to express FRalpha. The protocol: (§2) The affinity of each antibody was then assessed by flow cytometry. Briefly, HEK293 cells transfected to express FRalpha were washed with fluorescence-activated cell sorting (FACS) buffer, to which the IgGs were added at varying concentrations and incubated at 4 degrees Celsius for 60 minutes. The cells were then centrifuged and washed twice in FACS buffer. A phycoerythrin-labelled anti-human IgG, Fcgamma antibody (109-115-098; Jackson ImmunoResearch, Pennsylvania, United States) was then added to the cells at a 1:200 dilution and incubated at 4 degrees Celsius for 30 minutes. The cells were then washed, resuspended in FACS buffer, and counted by flow cytometry. Results are depicted in FIG. 4.

The target of assay [4] is T3, human FRalpha expressed on cells …. Nature of the assay: flow cytometry on SKOV3 human ovarian cancer cells that express FRalpha. The protocol: as §2
The flow cytometry experiment of the preceding paragraph was repeated with a human ovarian cancer cell line that expresses FRalpha, SKOV3. Results are depicted in FIGS. 5A and 5B. […] The antibody according to SEQ ID NO: 3-12 was then designated the lead antibody for further development.

T1 sequence (P15328 25-233 limits assumed): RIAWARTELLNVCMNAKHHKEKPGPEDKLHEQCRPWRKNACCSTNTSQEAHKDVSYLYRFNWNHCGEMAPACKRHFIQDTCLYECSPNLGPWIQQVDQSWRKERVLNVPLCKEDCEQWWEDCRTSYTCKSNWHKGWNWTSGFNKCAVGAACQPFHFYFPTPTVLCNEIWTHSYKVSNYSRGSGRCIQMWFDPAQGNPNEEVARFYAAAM
T2 sequence (A0A2K5U044 entry or part of it): as the sequence (P15328 25-233 limits assumed) above, with I2T, W4R, R37K, A146P, H171Y counted along it

B1: Mirvetuximab (antibody, V domains shown)
VH: QVQLVQSGAEVVKPGASVKISCKASGYTFTGYFMNWVKQSPGQSLEWIGRIHPYDGDTFYNQKFQGKATLTVDKSSNTAHMELLSLTSEDFAVYYCTRYDGSRAMDYWGQGTTVTVSS
VL: DIVLTQSPLSLAVSLGQPAIISCKASQSVSFAGTSLMHWYHQKPGQQPRLLIYRASNLEAGVPDRFSGSGSKTDFTLTISPVEAEDAATYYCQQSREYPYTFGGGTKLEIK
B1: the EC50 in assay [1] is roughly 0.12 nM; in assay [2] it was roughly 0.16 nM; in assay [3], roughly 4 nM.

B2: lead fully-human anti-FRalpha IgG1 antibody (antibody according to SEQ ID NO: 3-12) (antibody, V domains shown)
VH: EVQLLESGGGLVKPGGSLRLSCAASGFTFSSYTMNWVRQAPGKGLEWVSSISSGGGYIYYADSVKDRFTISRDNAKNSLYLQMNSLRAEDTAVYYCAKGDTIMIISAWGQGTTVTVSS
VL: DIQLTQSPSTLSASVGDRVTITCRASQSISSWLAWHQQKPGKAPKLLIYAASSLQNGVPSRFSGSGFGTDFTLTISSLQPEDFATYYCQQASSFPLTFGGGTKVEIKR
notes: Human IgG1 / kappa; also called lead antibody; the anti-FRalpha IgG of this disclosure
As to B2, the EC50 in assay [1] is roughly 0.05 nM; in assay [2] it was roughly 0.06 nM; in assay [3], roughly 5 nM; in assay [4] it was less than 1 nM.

Values taken from patent publication US12240900 (MEDICOVESTOR, dated 2025).
